How the values were obtained:
Settings in all cases: 20 nM; 72 h
MCF10A [1] = test: percent viability (nuclei count relative to siNT); higher = more viable cells
Protocol: (§1)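 After 72 h, cells were fixed and stained with Hoechst and anti-fibrillarin, and nucleoli per nucleus were counted with CellProfiler. Values are plate-adjusted percent effect for the one-nucleolus and 5+ nucleoli phenotypes, normalised to siNT (0%) and to the positive controls siNOL11 or siKIF11 (100%), as the mean of biological triplicates. Percent viability is the nuclei count relative to siNT.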

MCF10A [2] = test: one-nucleolus phenotype percent effect (relative to siNT 0% and siNOL11 100%); higher = more cells with one nucleolus (ribosome biogenesis inhibition)
Protocol: as §1

MCF10A [3] = test: 5+ nucleoli phenotype percent effect (relative to siNT 0% and siKIF11 100%); higher = more cells with five or more nucleoli
Protocol: as §1

| Sequence | percent viability (MCF10A [1]) [%] | one-nucleolus phenotype percent effect (MCF10A [2]) [%] | 5+ nucleoli phenotype percent effect (MCF10A [3]) [%] |
| --- | --- | --- | --- |
| UGGGUUUACGUUGGGAGAACU [hsa-miR-629-5p] | 52.3 | 17.7 | -19.1 |
| GAACUCACCCUCUGCUCCCAG [hsa-miR-6750-3p] | 99 | -8.73 | 29.7 |
| AAGAGAGGAGCAGUGGUGCUGUGG [hsa-miR-6856-5p] | 52.1 | 0.793 | -5.13 |
| CAAGGAGACGGGAACAUGGAGC [hsa-miR-4428] | 69.6 | -16.1 | 32.8 |
| GGCGGGUGCGGGGGUGG [hsa-miR-3656] | 148 | -15.8 | 37.2 |
| AGGCAGGGGCUGGUGCUGGGCGGG [hsa-miR-4763-3p] | 52.2 | 9.32 | 5.7 |
| AGGUUCUGUGAUACACUCCGACU [hsa-miR-152-5p] | 22 | 65.8 | -38.1 |
| UCGCGCCCCGGCUCCCGUUC [hsa-miR-1292-3p] | 64.3 | -6.7 | 9.03 |
| AGAAGUGGCUAAUAAUAUUGA [hsa-miR-4795-5p] | 34.5 | -14.7 | -2.9 |
| UGGUCUGUUCAUUCUCUCUUUUUGGCC [hsa-miR-7107-3p] | 15 | 13.2 | 0.728 |
| AAAGGUGCUCAAAUUAGACAU [hsa-miR-4735-3p] | 21.4 | 43 | -26.8 |
| UGGGGGAGGAAGGACAGGCCAU [hsa-miR-7111-5p] | 15.3 | 36.7 | -6.11 |
| CUGGAGAUAUGGAAGAGCUGUGU [hsa-miR-1270] | 34.1 | 38.6 | -41.4 |
| CUAGGAGGCCUUGGCC [hsa-miR-4266] | 52.6 | 7.31 | -14.2 |
| ACUGAGCCUCUCUCUCUCCAG [hsa-miR-6751-3p] | 65.4 | -10.3 | -22.5 |
| GGGCCUCUCUUGUCAUCCUGCAG [hsa-miR-6744-3p] | 81.6 | -21.1 | 49.2 |
| AGGCCAUCAGCAGUCCAAUGAA [hsa-miR-4529-5p] | 52.1 | 2.62 | 9.36 |
| AGCGGUGCUCCUGCGGGCCGA [hsa-miR-4746-3p] | 34.7 | 35.6 | -33 |
| CUCAAGUAGUCUGACCAGGGGA [hsa-miR-4465] | 67 | -5.88 | 21.6 |
| AAAAGUAAUCGCGGUUUUUGUC [hsa-miR-548h-5p] | 101 | -19.1 | 35.8 |

| Sequence | percent viability (MCF10A [1]) [%] | one-nucleolus phenotype percent effect (MCF10A [2]) [%] | 5+ nucleoli phenotype percent effect (MCF10A [3]) [%] |
| --- | --- | --- | --- |
| AACAGGUGACUGGUUAGACAA [hsa-miR-552] | 123 | -33.6 | 36.6 |
| UGUGACUUCUCCCCUGCCACAG [hsa-miR-6820-3p] | 32.3 | 22.3 | -7.76 |
| CACAUUACACGGUCGACCUCU [hsa-miR-323a-3p] | 49.9 | 12.4 | -33.7 |
| GCUAAGGAAGUCCUGUGCUCAG [hsa-miR-4521] | 83.7 | -19.3 | 34.9 |
| GGUGGGGCAAUGGGAUCAGGU [hsa-miR-3151] | 33.9 | -3.87 | 9.32 |
| AGUUGCCUUUUUGUUCCCAUGC [hsa-miR-4423-5p] | 44.9 | -22.1 | -0.303 |
| UCGUACCGUGAGUAAUAAUGCG [hsa-miR-126-3p] | 30.2 | 5.16 | -0.677 |
| ACCUGCCAGCACCUCCCUGCAG [hsa-miR-4722-3p] | 53.9 | 10.5 | -32.2 |
| CAAAAGCAAUCGCGGUUUUUGC [hsa-miR-548e-5p] | 60.8 | -2.62 | 44 |
| CUGCCCUAGUCUAGCUGAAGCU [hsa-miR-3157-3p] | 170 | -21.2 | 27.8 |
| UGGGGGAGAUGGGGGUUGA [hsa-miR-6870-5p] | 32.7 | 15.2 | -6.86 |
| GUGGGUGCUGGUGGGAGCCGUG [hsa-miR-6741-5p] | 43.5 | 6.09 | -22.2 |
| CUGCGCAAGCUACUGCCUUGCU [hsa-let-7i-3p] | 110 | -4.21 | 0.0505 |
| UCAGCACCAGGAUAUUGUUGGAG [hsa-miR-3065-3p] | 67.2 | -25.2 | 62.3 |
| UCAUCCCCCUCGCCCUCUCAG [hsa-miR-6729-3p] | 58.8 | -21.1 | 10.2 |
| UGGGCGAGGGGUGGGCUCUCAGAG [hsa-miR-4649-5p] | 45.5 | 1.85 | 19.2 |
| UUUAGUGUGAUAAUGGCGUUUGA [hsa-miR-3591-5p] | 39.6 | 11.5 | 0.56 |
| UGGGAACGGGUUCCGGCAGACGCUG [hsa-miR-1292-5p] | 60.3 | 13.5 | -16.7 |
| UAUGGAAAGACUUUGCCACUCU [hsa-miR-3688-3p] | 54 | -10.8 | 57.1 |
| UUCAAGUAAUCCAGGAUAGGCU [hsa-miR-26a-5p] | 103 | -6.05 | 17.8 |

| Sequence | percent viability (MCF10A [1]) [%] | one-nucleolus phenotype percent effect (MCF10A [2]) [%] | 5+ nucleoli phenotype percent effect (MCF10A [3]) [%] |
| --- | --- | --- | --- |
| CCUGCUGGUCAGGAGUGGAUACUG [hsa-miR-3692-5p] | 32.9 | 2.08 | 6.3 |
| ACCAUCGACCGUUGAUUGUACC [hsa-miR-181a-3p] | 87.3 | -7.58 | 21.1 |
| ACGGCCCAGGCGGCAUUGGUG [hsa-miR-6075] | 87.5 | -5.35 | 5.39 |
| UUGCAUAUGUAGGAUGUCCCAU [hsa-miR-448] | 75.6 | -2.74 | 34 |
| UCUCUGAGCAAGGCUUAACACC [hsa-miR-4653-5p] | 50.6 | 18.9 | -12.4 |
| GCAGUCCAUGGGCAUAUACAC [hsa-miR-455-3p] | 112 | -12.4 | 26.8 |
| UCACCUGACCUCCCAUGCCUGU [hsa-miR-3622a-3p] | 103 | -15.8 | 33.1 |
| UGAGGAUAUGGCAGGGAAGGGGA [hsa-miR-3679-5p] | 100 | -24.2 | 29.7 |
| GUGGGUACGGCCCAGUGGGGGG [hsa-miR-1225-5p] | 94.3 | -23.1 | 64.9 |
| CGCCUGCCCAGCCCUCCUGCU [hsa-miR-4763-5p] | 38.1 | 11.6 | -11.3 |
| AUCGGGCCCUCGGCGCCGG [hsa-miR-3181] | 31.6 | 8.67 | -23.1 |
| UGUGCAAAUCUAUGCAAAACUGA [hsa-miR-19a-3p] | 141 | -14.6 | 34.4 |
| AUUGCCUCUGUUCUAACACAAG [hsa-miR-3152-5p] | 129 | -11.4 | 38.3 |
| AAAAGCUGGGUUGAGAGGGCAA [hsa-miR-320b] | 59 | 8.28 | -10.2 |
| GAGCCAGUUGGACAGGAGC [hsa-miR-575] | 129 | -23.7 | 3.98 |
| CCGGCCGCCGGCUCCGCCCCG [hsa-miR-1908-3p] | 96 | -14.6 | 44.4 |
| UUAGGGAGUAGAAGGGUGGGGAG [hsa-miR-3162-5p] | 52.8 | 8.12 | -5.7 |
| CAAAAACCAUAGUUACUUUUGC [hsa-miR-548bb-3p] | 103 | -26 | 40.6 |
| UGCCCUGAGACUUUUGCUC [hsa-miR-7976] | 40.8 | 17.4 | -8.65 |
